Article PMC3088361 (Biochemistry, 2011)

Target: HIV-1 YU-2 gp120 wild type (HIV-1 (isolate YU-2), UniProt P35961 32-498)
Assay: SPR

Question: Does CNLHWCQLRCKSLGLLGKCAGSFCACV (designed binder, C-terminal amide (-NH2); oxidized peptide) [[F5W]CD4F23] bind?
Answer: binds
